Patent US20230235068A1 (published 2023)

What was measured:
[1] = target: T1, recombinant rat LEPR extracellular domain expressed with a C-terminal myc-myc-hexahistidine tag (rat, UniProt Q62959 22-839); experiment: SPR, captured mAb, 25 C
T1 construct: Monomeric construct; also called rLEPR.MMH; rLEPR-MMH
Protocol: (§1) Equilibrium dissociation constants (KD values) for antigen binding to purified anti-LEPR monoclonal antibodies of the invention were determined using a real-time surface plasmon resonance biosensor using a Biacore 4000 instrument. All binding studies were performed in running buffer containing 10 mM HEPES, 150 mM NaCl, 3 mM EDTA, and 0.05% v/v Surfactant Tween-20, pH 7.4 (HBS-ET running buffer) at 25° C. and 37° C. The Biacore sensor surface was first derivatized by amine coupling with a monoclonal mouse anti-human Fc antibody (GE, #BR-1008-39) to the capture anti-LEPR monoclonal antibodies. […] The dissociation of monoclonal antibody bound LEPR reagent was monitored for 10 minutes in HBS-ET running buffer. Kinetic association (kₐ) and dissociation (kd) rate constants were determined by fitting the real-time binding sensorgrams to a 1:1 binding model with mass transport limitation using Scrubber 2.0c curve-fitting software. Binding dissociation equilibrium constants (KD) and dissociative half-lives (t½) were calculated from the kinetic rate constants as: […]

[2] = target: T2, recombinant mouse LEPR extracellular domain expressed with a C-terminal myc-myc-hexahistidine tag (mouse, UniProt P48356 22-839); experiment: SPR, captured mAb, 37 C
T2 construct: Monomeric construct; also called mLEPR.MMH; mLEPR-MMH
Protocol: as §1

T1 sequence (Q62959 other isoform, or with tags, fused parts or gaps): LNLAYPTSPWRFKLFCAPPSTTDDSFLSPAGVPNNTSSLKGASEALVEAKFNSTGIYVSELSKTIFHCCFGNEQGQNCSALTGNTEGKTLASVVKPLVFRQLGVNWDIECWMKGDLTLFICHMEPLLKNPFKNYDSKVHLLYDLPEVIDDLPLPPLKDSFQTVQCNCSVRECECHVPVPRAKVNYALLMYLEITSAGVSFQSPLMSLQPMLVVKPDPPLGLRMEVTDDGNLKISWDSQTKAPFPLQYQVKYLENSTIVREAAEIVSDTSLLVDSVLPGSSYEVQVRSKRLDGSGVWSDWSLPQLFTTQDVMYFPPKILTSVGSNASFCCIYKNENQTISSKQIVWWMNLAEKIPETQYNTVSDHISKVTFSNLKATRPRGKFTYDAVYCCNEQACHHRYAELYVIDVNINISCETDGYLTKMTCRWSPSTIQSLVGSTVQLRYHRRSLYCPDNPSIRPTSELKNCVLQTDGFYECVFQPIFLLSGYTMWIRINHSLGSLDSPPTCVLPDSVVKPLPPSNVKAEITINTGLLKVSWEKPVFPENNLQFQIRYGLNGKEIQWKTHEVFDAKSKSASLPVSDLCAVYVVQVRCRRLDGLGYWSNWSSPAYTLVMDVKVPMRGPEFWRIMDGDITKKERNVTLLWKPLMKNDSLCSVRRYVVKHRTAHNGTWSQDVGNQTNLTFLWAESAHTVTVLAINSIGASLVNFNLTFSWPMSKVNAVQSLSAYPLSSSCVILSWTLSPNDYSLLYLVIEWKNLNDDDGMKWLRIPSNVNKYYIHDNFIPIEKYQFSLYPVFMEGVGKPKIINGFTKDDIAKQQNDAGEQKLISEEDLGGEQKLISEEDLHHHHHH
T2 sequence (P48356 other isoform, or with tags, fused parts or gaps): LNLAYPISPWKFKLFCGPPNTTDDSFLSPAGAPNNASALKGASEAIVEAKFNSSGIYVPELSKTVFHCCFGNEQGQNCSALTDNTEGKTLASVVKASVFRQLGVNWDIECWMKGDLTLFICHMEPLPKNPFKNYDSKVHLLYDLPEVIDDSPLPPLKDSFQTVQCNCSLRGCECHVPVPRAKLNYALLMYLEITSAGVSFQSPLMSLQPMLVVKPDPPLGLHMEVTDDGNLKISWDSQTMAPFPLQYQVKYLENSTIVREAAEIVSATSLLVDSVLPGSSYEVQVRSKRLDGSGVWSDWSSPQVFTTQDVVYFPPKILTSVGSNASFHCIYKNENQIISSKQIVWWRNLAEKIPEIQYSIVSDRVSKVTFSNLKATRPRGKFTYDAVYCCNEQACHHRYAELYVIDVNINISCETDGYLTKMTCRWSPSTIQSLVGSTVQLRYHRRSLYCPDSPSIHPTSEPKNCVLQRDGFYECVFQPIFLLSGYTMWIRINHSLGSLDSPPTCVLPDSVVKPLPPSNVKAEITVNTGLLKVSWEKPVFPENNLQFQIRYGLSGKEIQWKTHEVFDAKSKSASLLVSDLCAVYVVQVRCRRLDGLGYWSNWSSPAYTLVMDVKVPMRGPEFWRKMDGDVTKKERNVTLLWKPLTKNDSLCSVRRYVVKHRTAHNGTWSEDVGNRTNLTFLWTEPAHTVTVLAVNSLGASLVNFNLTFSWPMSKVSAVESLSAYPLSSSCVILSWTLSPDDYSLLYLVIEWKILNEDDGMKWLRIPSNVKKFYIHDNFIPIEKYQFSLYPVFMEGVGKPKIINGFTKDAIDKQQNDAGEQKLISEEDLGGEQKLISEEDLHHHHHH

Row | Binder | 100 nM rLEPR-MMH Bound (RU) [1] [RU] | 100 nM mLEPR-MMH Bound (RU) [2] [RU]
1 | H4H17322P2 (antibody, human IgG4, V domains shown, Fully human variable regions; H4H prefix = human IgG4 Fc) VH: QLQLQESGPGLVKPSETLSLTCTVSGASISSSRFYGGWIRQPPGKGLEWIGDIYYSGNTYYNPSLQSRVTISVDTSKNQFSLKLSSVTAADTAVYYCARHLMITFGGLIVEGFDIWGQGTMVTVSS VL: not shown | 10 | 
2 | H4H18462P2 (antibody, human IgG4, V domains shown, Fully human variable regions; H4H prefix = human IgG4 Fc) VH: EVQLVESGGDLVQPGRSLRLSCAASGFTFSSFAMSWVRQAPGRGLEWVSSLSDSGDNTYYADSVKGRFTISRDNSKNTLYLQMNNLRAEDTAVYYCAKDLFSGWLFHGFDVWGQGTMVTVSS VL: not shown |  | 3
